From US20100111986A1 (Memorial Sloan Kettering, published 2010)

target: T1, HLA-A0301 (human); assay: stabilization assay on Raji HLA-A0301 cells
T1 construct: MHC class I molecule on Raji HLA-A0301 cells

Binder | binding result
FMCAYPGCNK [A3WT-1 C (native)] | binds
FMYAYPGCNK [A3WT-1 C1 (ANALOGUE)] | binds
FMCAYPFCNK [A3 WT-1 C2 (ANALOGUE)] | binds
NMHQRNMTK [A3 WT-1 A (native)] | binds
NMYQRNMTK [A3 WT-1 A1 (ANALOGUE)] | binds
NMHQRVMTK [A3WT-1 A2 (ANALOGUE)] | binds
KLSHLQMHSR [A3WT-1 D (native)] | binds
KLSHLQMHSK [A3 WT-1 D2 (ANALOGUE)] | binds
QMNLGATLK [A3 WT-1 B (native)] | binds

Continued, values first:

binding result | Binder
binds | FMYAYPFCNK [A3 WT-1 C3 (ANALOGUE)]
binds | NMYQRVMTK [A3 WT-1 A3 (ANALOGUE)]
binds | KLYHLQMHSK [A3 WT-1 D3 (ANALOGUE)]
binds | KLYHLQMHSR [A3WT-1 D1 (ANALOGUE)]
binds | QMYLGVTLK [A3WT-1 B3 (ANALOGUE)]
binds | QMNLGVTLK [A3WT-1 B2 (ANALOGUE)]
binds | QMYLGATLK [A3WT-1 B1 (ANALOGUE)]

target: T2, HLA-A0201 (human); assay: T2 cell HLA stabilization assay, flow cytometry
T2 construct: MHC class I molecule on T2 cells; also called HLA-A2.1; HLA 0201
Procedure: T2 cells (TAP″, HLA-A0201⁺) were incubated overnight at 27° C. at a concentration of 1×10⁶ cells/ml in FCS-free RPMI medium supplemented with 5 μg/ml human β₂m (Sigma, St Louis, Mo.) in the absence (negative control) or presence of either a positive reference tyrosinase peptide or test peptides at various final concentrations (50, 10, 1, and 0.1 micrograms (μg)/ml). Following a 4-hour incubation with 5 μg/ml brefeldin A (Sigma), T2 cells were labeled for 30 minutes at 4° C. with a saturating concentration of anti-HLA-A2.1 (BB7.2) mAb, then washed twice. Cells were then incubated for 30 minutes, 4° C. with a saturating concentration of FITC-conjugated goat IgG F(ab′)2 anti-mouse Ig (Caltag, San Francisco, Calif.), washed twice, fixed in PBS/1% paraformaldehyde and analyzed using a FACS Calibur® cytofluorometer (Becton Dickinson, Immunocytometry Systems, San Jose, Calif.).
The mean intensity of fluorescence (MIF) observed for each peptide concentration (after dividing by the MIF in the absence of peptide) was used as an indication of peptide binding and expressed as a “fluorescence index.” Stabilization assays were performed similarly. Following initial evaluation of peptide binding at time 0, cells were washed in RPMI complete medium to remove free peptides and incubated in the continuous presence of 0.5 μg/ml brefeldin-A for 2, 4, 6 or 8 hours.

Binder | binding result
YLGEQQYSV [WT-1 B1 (ANALOGUE)] | binds
YLGATLKGV [WT-1 D1 (ANALOGUE)] | binds
YMFPNAPYL [WT-1 A1 (ANALOGUE)] | binds
RMFPNAPYL [WT-1 A (native)] | binds
YLLPAVPSL [WT-1 C1 (ANALOGUE)] | binds

Continued, values first:

binding result | Binder
binds | SLGEQQYSV [WT-1 B (native)]
binds | NLGATLKGV [WT-1 D (native)]
binds | ALLPAVPSL [WT-1 C (native)]
